Results taken from the supplement of paper PMC10724198.
± gives the standard deviation of the averaged measurements.

Tested on: Saccharomyces cerevisiae
Test: protein stability index of tFT-peptide fusion (C-terminal peptide) (PSI (0-1 scale)); higher = more stable (slower turnover)
Details: genetic background: wild type; temperature: 30 C
Method: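 Multiplexed protein stability (MPS) profiling in S. cerevisiae. Random 12-aa peptides (tFT-X12 library) are fused to the C-terminus of a sfGFP-mCherry tandem fluorescent timer, after mCherry and a GGGS linker. Cells are FACS-sorted into 8 mCherry/sfGFP bins and deep-sequenced. The protein stability index (PSI) is the read-weighted bin average, scaled from 0 (unstable) to 1 (stable). Only peptides with >10 reads are reported; cells were grown at 30 °C in SC-His with glucose.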
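Further: PSI is a weighted mean of sequencing reads over stability bins, variants kept only with over 10 reads, mCherry proximal and sfGFP distal, peptide attached via GGGS linker.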

Sequence | protein stability index
GGCQCFSFPWPP | 0.712 ± 0.087
GGEGRGAFWGGE | 0.68361 ± 0.0002
GGEYVGGRGCGL | 0.682 ± 0.1
GGFASGLCGGVI | 0.728 ± 0.087
GGFGVARVLYGL | 0.712 ± 0.035
GGGAGGEAVRVW | 0.655 ± 0.025
GGGARFGLGGRM | 0.675 ± 0.027
GGGGAGFRGGIE | 0.68 ± 0.0019
GGGGAGGRRGTQ | 0.654 ± 0.0077
GGGGCRVRGLGA | 0.684 ± 0.041
GGGGEVRAWGLR | 0.71 ± 0.032
GGGGGGGGCGVI | 0.77 ± 0.08
GGGGGGGGRARE | 0.707 ± 0.09
GGGGGGGLGGAF | 0.717 ± 0.026
GGGGGGGVGMMW | 0.738 ± 0.02
GGGGGGRLEGGA | 0.66 ± 0.07
GGGGGGVRVARW | 0.687 ± 0.07
GGGGGGVSLGGR | 0.696 ± 0.072
GGGGGSRGVCLG | 0.656 ± 0.063
GGGGGVCGACVV | 0.685 ± 0.016
GGGGRGTAVVGV | 0.66 ± 0.048
GGGGRGVGAGGG | 0.652 ± 0.061
GGGGSAGAGGGG | 0.6221 ± 0.0061
GGGIGWRAGEFG | 0.673 ± 0.0016
GGGRGGGEWVGG | 0.651 ± 0.043

Sequence | protein stability index
GGGRGRWGPEGE | 0.6902 ± 0.0043
GGGRGTGVEFGA | 0.7 ± 0.03
GGGRGVGCMGCR | 0.688 ± 0.015
GGGRPDRPQRAI | 0.741 ± 0.026
GGGRRRVAGREL | 0.701 ± 0.048
GGGRWGAGVKGV | 0.645 ± 0.028
GGGRYCADDGGR | 0.763 ± 0.051
GGGSLWWDVGYG | 0.6649 ± 0.0016
GGGTLGQWCCDV | 0.6835 ± 0.0029
GGGVGCRSRGAG | 0.595 ± 0.025
GGGVLLRGGSGP | 0.716 ± 0.053
GGGVWYFSWSFC | 0.595 ± 0.045
GGGWGRAYSWWV | 0.705 ± 0.012
GGGWSGRGVGDR | 0.727 ± 0.078
GGGYHLGSCDKL | 0.624 ± 0.025
GGHAAMGRRGRE | 0.73 ± 0.14
GGIRGITSRQPP | 0.576 ± 0.019
GGIVGVSWLVRS | 0.657 ± 0.03
GGLEVDWVGCGV | 0.701 ± 0.012
GGLGSHWDCDGL | 0.734 ± 0.093
GGLGVYQWVDSV | 0.663 ± 0.02
GGLIWRHGVGRG | 0.692 ± 0.018
GGLRPLFLCCLF | 0.569 ± 0.05
GGLSGSRCTLFW | 0.7342 ± 0.0069
GGLVWEESAGVR | 0.7091 ± 0.0016

Sequence | protein stability index
GGNMPNNCWSRI | 0.698 ± 0.022
GGNSRASAVKGA | 0.702 ± 0.1
GGNTQTNYHGCL | 0.73227 ± 0.00035
GGPAWGRGGMYW | 0.678 ± 0.034
GGPGWGVSGWEG | 0.705 ± 0.015
GGRAWRWVARVG | 0.673 ± 0.045
GGRCAERSDWCG | 0.647 ± 0.016
GGRCGSVGRGGA | 0.735 ± 0.065
GGRFGLGGRLVG | 0.658 ± 0.05
GGRFPGGGGRRR | 0.583 ± 0.06
GGRGSAWRWRRG | 0.674 ± 0.014
GGRLLLLVGFRV | 0.583 ± 0.0066
GGRPVGRRRPGA | 0.671 ± 0.031
GGRQTAVSGLLL | 0.685 ± 0.017
GGRSGVSGVVAG | 0.7021 ± 0.0049
GGRVKPRGVGVG | 0.648 ± 0.016
GGRVPRCRTVLL | 0.681 ± 0.033
GGSGGGRRGVGR | 0.656 ± 0.0095
GGSGLRCCREMG | 0.681 ± 0.022
GGSLPAHPRNPL | 0.701 ± 0.027
GGSRGGTFLWGP | 0.672 ± 0.036
GGSTAKGRPMDT | 0.645 ± 0.0067
GGTEGSGWSGGG | 0.638 ± 0.029
GGTGGRLGVGHV | 0.704 ± 0.073
GGTGRGGEMGGR | 0.7428 ± 0.0069

Sequence | protein stability index
GGTGRVGEMGGR | 0.755 ± 0.034
GGTWVLGWGLGV | 0.714 ± 0.4
GGVCVGSFLFDR | 0.702 ± 0.029
GGVEVAQGVVWC | 0.715 ± 0.066
GGVGGGRAGVWG | 0.681 ± 0.021
GGVGGPGLDGWK | 0.676 ± 0.059
GGVLAGEWGAGL | 0.624 ± 0.051
GGVSGQLLRSHG | 0.682 ± 0.0027
GGVSVVTRVAPR | 0.658 ± 0.016
GGVVLDEEVGCG | 0.614 ± 0.06
GGWGCGGWGFVG | 0.58568 ± 0.00052
GGWGGGGGAWSG | 0.71 ± 0.041
GGWGWRSGTEGE | 0.665 ± 0.012
GGWHVVGGAGVG | 0.564 ± 0.01
GGWWGGLGCFMV | 0.699 ± 0.034
GGYGGGWRGGGR | 0.626 ± 0.077
GGYRFCSKYKSE | 0.673 ± 0.023
GGYYIFGLCDLL | 0.625 ± 0.075
GHAYKYVDSFRR | 0.654 ± 0.044
GHGGHIVRTSSY | 0.7 ± 0.023
GHLGLFEEETGG | 0.711 ± 0.053
GHRLSMCLGFGK | 0.63 ± 0.01
GHVCTRCVWPRV | 0.606 ± 0.055
GIDARGLYGGAL | 0.66 ± 0.032
GIGCMVYKGGFQ | 0.6977 ± 0.0011

Sequence | protein stability index
GIGYVTPLSRVL | 0.72 ± 0.038
GIKKNQVSIRYI | 0.606 ± 0.03
GIKMTWTNGQHF | 0.6909 ± 0.0054
GILFFLQLCACS | 0.7014 ± 0.0064
GILNIRKALDGK | 0.6477 ± 0.0026
GIPCRCVCLNQW | 0.6961 ± 0.0017
GIPIQKLEYMCK | 0.669 ± 0.019
GIPPVLFAPPPL | 0.696 ± 0.022
GIQSGGGGGKGG | 0.668 ± 0.015
GIRGECEFHSCD | 0.685 ± 0.015
GIRKRIEKKKIK | 0.7 ± 0.051
GISGGTVSILGV | 0.704 ± 0.0096
GKAIKRPIGIRG | 0.683 ± 0.019
GKALPALPSGLL | 0.657 ± 0.025
GKECLIRKSHDG | 0.674 ± 0.011
GKEKGRAEGRDG | 0.701 ± 0.023
GKILKGAASPSC | 0.72 ± 0.019
GKITKNKDNIET | 0.686 ± 0.021
GKKGKEKGEEKR | 0.716 ± 0.028
GKKKHRSNPRRS | 0.725 ± 0.067
GKKKIDDKGRWI | 0.678 ± 0.14
GKNAEENNIVRE | 0.614 ± 0.083
GKNKRKTYGKRE | 0.722 ± 0.035
GKQKKKHRRNLK | 0.743 ± 0.12
GKQNQEKNKKTS | 0.696 ± 0.045

Sequence | protein stability index
GKRGRDYIKVRE | 0.6448 ± 0.006
GKRTVLFTRCRQ | 0.5888 ± 0.0055
GKTRKGKKRKRK | 0.666 ± 0.14
GKTRLIEDTQTT | 0.67 ± 0.019
GKVCVLKLSPWI | 0.814 ± 0.16
GKVGSLGLVLSP | 0.682 ± 0.096
GLAFVGWGPRFR | 0.71 ± 0.028
GLAYPAGALSLL | 0.684 ± 0.1
GLCGVCVLKFPR | 0.759 ± 0.15
GLCLLSKDGCLV | 0.669 ± 0.055
GLCRLLEILKLR | 0.63 ± 0.054
GLCSMRLYKPRI | 0.634 ± 0.014
GLEIGMSQVSMG | 0.645 ± 0.036
GLEVGVRGVMGC | 0.688 ± 0.033
GLGGPLSLVYLF | 0.629 ± 0.037
GLGLASSGWGRG | 0.733 ± 0.018
GLGLVSWEAGGG | 0.702 ± 0.017
GLGSSVLQVGVR | 0.689 ± 0.056
GLGVPCDFRVVA | 0.694 ± 0.013
GLGVSLLVGGEA | 0.6572 ± 0.0028
GLQFDPALPLPP | 0.739 ± 0.022
